Laboratory results taken from patent US20040209800A1, “Use of mx gtpases in the prognosis and treatment of cancer” (priority 2001, published 2004).
Residue numbers refer to the chain shown, from its start. “Also recorded” adds a separate entry of the source.

B1: MxA: full-length human MxA GTPase, 78 kDa, expressed from a transfected plasmid in PC-3M or LOX cells (protein)
chain: MVVSEVDIAKADPAAASHPLLLNGDATVAQKNPGSVAENNLCSQYEEKVRPCIDLIDSLRALGVEQDLALPAIAVIGDQSSGKSSVLEALSGVALPRGSGIVTRCPLVLKLKKLVNEDKWRGKVSYQDYEIEISDASEVEKEINKAQNAIAGEGMGISHELITLEISSRDVPDLTLIDLPGITRVAVGNQPADIGYKIKTLIKKYIQRQETISLVVVPSNVDIATTEALSMAQEVDPEGDRTIGILTKPDLVDKGTEDKVVDVVRNLVFHLKKGYMIVKCRGQQEIQDQLSLSEALQREKIFFENHPYFRDLLEEGKATVPCLAEKLTSELITHICKSLPLLENQIKETHQRITEELQKYGVDIPEDENEKMFFLIDKVNAFNQDITALMQGEETVGEEDIRLFTRLRHEFHKWSTIIENNFQEGHKILSRKIQKFENQYRGRELPGFVNYRTFETIVKQQIKALEEPAVDMLHTVTDMVRLAFTDVSIKNFEEFFNLHRTAKSKIEDIRAEQEREGEKLIRLHFQMEQIVYCQDQVYRGALQKVREKELEEEKKKKSWDFGAFQSSSATDSSMEEIFQHLMAYHQEASKRISSHIPLIIQFFMLQTYGQQLQKAMLQLLQDKDTYSWLLKERSDTSDKRKFLKERLARLTQARRRLAQFPG
B2: T103 mutant MxA: FLAG-tagged MxA with threonine 103 mutated to alanine; the mutation inactivates GTPase activity (protein)
chain: B1 chain with T103A
modifications: left off: small tags and cut ends

Experiments:
PC-3 cells = experiment: MxA protein induction, immunohistochemistry and Western blot; type: cell-based, human; conditions: 1000 IU of IFN-α/mL, 24 hours
Protocol: (§1) PC-3 and PC-3M test cells also were treated with recombinant IFN-α (Novartis Pharma—Basel, Switzerland) (1000 IU of IFN-α/mL), grown for 24 hours, fixed, permeabilized, and subjected to immunohistochemical analysis using anti-MxA antibody and DAPI nuclear counterstaining to locate individual cells. […] Western blotting with […] using 100 μg cell lysates confirmed IFN-α-induced increase in MxA expression in both cell lines.

PC-3M cells [1] = experiment: as above; type: cell-based, human; conditions: 1000 IU of IFN-α/mL, 24 hours
Protocol: as §1

PC-3M cells [2] = experiment: In vitro motility, migration through 8-μm pore membrane; type: cell-based, human; conditions: 24 hours
Protocol: The PC-3M cells of Example 1 were transfected with a pCIneo plasmid (Promega, Madison, Wis.) expressing full-length MxA or a plasmid constructed from pHβ Apr-1 comprising an MxA sequence operably linked to a CMV promoter, and two stable cell lines were selected. PC-3M cells stably transfected with a plasmid expressing β-galactosidase (β-gal) were used as a control. MXA expression was not detected in the PC-3M β-gal cells.
The motility of PC-3M transfectants in vitro was tested by measuring the ability of the cells to migrate through pores in a membrane. Briefly, FALCON cell culture inserts with an 8-μm pore-size PET membrane (Fisher Scientific, Franklin Lake, N.J.) were placed into the wells of a 24-well plate, each well containing 0.5 ml of complete medium (RPMI 1640 with 10% FBS, 1% antimycotic-antibiotic solution, and 500 μg mL^−1 G418). Control and MxA-transfected cells were trypsinized, suspended at 1.5×10^5 cells/ml in complete medium, and 350μl of the cell suspension was added to each insert. Following incubation for 24 hours at 37° C., cells from the upper surface of the membrane were removed by scrubbing with a cotton swab. Cells that had migrated through the insert and adhered to the bottom of the membrane were Wright stained using the CAMCO Quik Stain kit (Fisher Scientific), visualized using a Zeiss Axiophot microscope or Leica DMIRB microscope, and counted.

LOX cells = experiment: In vitro invasion, BIOCOAT Matrigel invasion chamber; type: cell-based, human; conditions: stably transfected LOX cells vs β-gal control LOX cells
PC-3M cells [3] = experiment: Primary tumor growth assay; type: in vivo, beige/SCID mice; conditions: 2×10^6 PC3M-MxA cells subcutaneously; β-gal control 29.8±3.4 days
Protocol: The effect of MxA expression on tumor growth in vivo was first tested using a primary tumor growth assay. 2×10^6 recombinant PC-3M cells expressing […] MxA (PC3M-MxA) or 2×10^6 recombinant PC-3M-β-gal cells (expressing β-gal) were injected subcutaneously into 30 beige/SCID mice (Charles River Laboratories, Wilmington, Mass.), and the time to formation of a 2-cm subcutaneous tumor (as measured using Vernier calipers) was determined by monitoring the mice at least three times weekly for evidence of tumor development, quantification of tumor size, and evidence of tumor/metastasis-associated morbidity. Subcutaneous tumor size was quantified using Vernier Calipers. Criteria for sacrifice included tumor growth to greater than 2.0 cm, ill thrift, anorexia, dehydration, decreased activity and grooming behavior, and dyspnea.

PC-3M cells [4] = experiment: Experimental hepatic metastasis assay; type: in vivo, beige/SCID mice; conditions: 2×10^6 PC3M-MxA cells into the spleen; β-gal control 23.3±3.3 days
Protocol: The in vivo effects of MxA expression on tumor growth and metastatic potential was also tested using an experimental hepatic metastasis assay. Briefly, 2×10^6 cells from the PC3M-MxA cell line and the PC-3M-β-gal cell line were injected into the spleens of beige/SCID mice. Mice were monitored at least three times weekly for evidence of tumor development, quantification of tumor size, and evidence of tumor and/or metastasis-associated morbidity. Animal survival time was determined, and mean survival time was compared between the two treatment groups.

[5] = test system: insoluble cytoskeletal matrix; experiment: Cytoskeletal extraction and anti-FLAG immunological analysis; type: cell-based; conditions: transfected LOX cells, anti-FLAG antibody
Protocol: MxA-LOX cells and T103 MxA-LOX cells were subjected to immunological analysis using known techniques (see Choi et al., J. Biol. Chem., 272:28479-28484 (1997)) with an anti-FLAG antibody after cytoskeletal extraction, which removed all the soluble proteins, leaving only cytoskeleton-associated proteins. Cytoskeletal preparations were prepared by permeabilizing the cells with 1% Triton X-100 in PHEM buffer (60 mM piperazine-N-N′-bis(2-ethane-sulfonic acid) (PIPES; pH 6.9), 25 mM N-2-hydroxyethlypiperazine-N′-2-ethanesulfonic acid (HEPES), 2 mM MgCl2, and 10 mM ethylene glycol-bis(b-aminoethyl ether)-N,N,N′N′-tetraacetic acid (EGTA, pH 6.9)) for 2 minutes, fixing the cells with 3.7% formaldehyde for 10 minutes at room temperature (see Hartwig, J. Cell Biol. 118:1421-1442 (1992)). Fixed cells were incubated with appropriate primary and secondary antibodies and the nuclei counterstained with 4,6-daimidino-2-phenylinodole (DAPI). Cells were visualized with a Zeiss Axiophot microscope and images were captured using an Optronics CCD camera.
To further investigate the relationship between MxA and microtubules, soluble proteins were extracted from the LOX cells, using standard techniques, and the insoluble cytoskeletal matrix was examined for associated proteins.

tubulin = experiment: Coimmunoprecipitation with anti-α-tubulin and anti-MxA antibodies; type: binding; conditions: transfected LOX cell lysates
Protocol: (§2) Immunoprecipitation was performed by known techniques (Bang et al., Proc. Natl. Acad. Sci. USA 91:5330-5334 (1994)). Briefly, cell lysates were obtained and incubated with the indicated antibodies overnight at 4° C. The immunocomplex was immobilized on protein A/G-Sepharose (Santa Cruz Biotechnologies), resolved on SDS-polyacrylamide gels, transferred to nitrocellulose filters, and immunoblotted with the indicated antibodies.
Using the LOX cells stably transfected with the […] MxA construct, as described in the preceding Examples, whole cell lysates were prepared and immunoprecipitated with anti-α-tubulin antibodies, anti-MxA antibodies, and protein A/protein G-coated Sepharose beads alone, and the resulting compositions were subjected to Western blotting with anti-FLAG antibody (Sigma).

actin = experiment: Coimmunoprecipitation with actin in PC-3 cells; type: binding, human; conditions: endogenous MxA in PC-3 cells
Protocol: as §2

PC-3M cells [6] = experiment: Time-lapse video microscopy of cell motility; type: cell-based, human; conditions: PC-3M-MxA vs PC-3M-β-gal cells, 250 minute recording
Protocol: Using time-lapse video microscopy, PC-3M cells stably transfected with an MxA construct (as described in Example 2) were observed and compared to control PC-3M-β-gal cells. Specifically, PC-3M-βgal and PC-3M-MxA cells were seeded in 25 cm^2 flasks and cultured for 24 hours. After 24 hours, the flasks were filled with pre-warmed complete medium and cell motility was observed using by phase-contrast microscopy using an Optronics cooled CCD camera mounted on a Leica DMIRB inverted microscope. During observation, the cells were maintained at 37° C. using an ASI 400 Air Stream Incubator (Nevtek—Burnsville, Va.). Time-lapse video microscopy (250 minute recording converted into 1 minute of playing time) was converted into QuickTime movies using Adobe Premier 5.1.

Row | Molecule | level of MxA protein after exposure to IFN-α (PC-3 cells) | level of MxA protein after exposure to IFN-α (PC-3M cells [1]) | motility, % of the β-gal control cells (PC-3M cells [2]; PC-3M stably expressing MxA, lowest level seen) [%] | motility, % lower than the β-gal control cells (PC-3M cells [2]; all MxA-expressing PC-3M cells, both cases tested) | in vitro invasive activity, % of control cells (LOX cells) [%] | time to develop a 2-cm tumor mass (PC-3M cells [3]) [days] | survival (PC-3M cells [4]) [days] | association with insoluble cytoskeletal matrix after cytoskeletal extraction [5] | association with tubulin by coimmunoprecipitation (tubulin) | co-immunoprecipitation with actin (actin) | mobility of PC-3M cells by visual observation (PC-3M cells [6])
1 | IFN-α | increased substantially | became detectable |  |  |  |  |  |  |  |  | 
2 | B1 |  |  | 24.3 | at least 22.4% | 15.1 | 46.8 ± 9.9 | 54.3 ± 11.2 | remained bound to the matrix | associated with cell microtubules and particularly tubulin; also recorded: detected in the complex with tubulin | did not co-immunoprecipitate | significantly inhibited
3 | B2 |  |  |  |  | 119 |  |  | undetectable; also recorded: washed out of the insoluble preparation | did not associate |  | 
